Measured values reported in PMC11362210, “N-carboxyacyl and N-α-aminoacyl derivatives of aminoaldehydes as shared substrates of plant aldehyde dehydrogenases 10 and 7” (Amino Acids, 2024).

Tests used:
Experiment in all cases: purified protein
purified protein [1] = substrate: N[C@@H](CCCC=O)C(=O)O; format: biochemical, Zea mays; conditions: 2.5 mM NAD+, 0.1 M sodium pyrophosphate, pH 8.1
purified protein [2] = substrate: N[C@@H](Cc1ccc(O)cc1)C(=O)NCCC=O; format: biochemical, Zea mays; conditions: 2.5 mM NAD+, 0.1 M sodium pyrophosphate, pH 8.1
purified protein [3] = substrate: N[C@@H](Cc1ccccc1)C(=O)NCCC=O; format: biochemical, Zea mays; conditions: 2.5 mM NAD+, 0.1 M sodium pyrophosphate, pH 8.1
purified protein [4] = substrate: N[C@@H](Cc1ccccc1)C(=O)NCCCC=O; format: biochemical, Zea mays; conditions: 2.5 mM NAD+, 0.1 M sodium pyrophosphate, pH 8.1
purified protein [5] = substrate: O=CCCCNC(=O)CC(=O)O; format: biochemical, Zea mays; conditions: 2.5 mM NAD+, 0.1 M sodium pyrophosphate, pH 8.1
purified protein [6] = substrate: O=CCCNC(=O)CC(=O)O; format: biochemical, Zea mays; conditions: 2.5 mM NAD+, 0.1 M sodium pyrophosphate, pH 8.1
purified protein [7] = substrate: NCCC=O; format: biochemical, Lathyrus oleraceus; conditions: 1 mM NAD+, 0.15 M Tris-HCl, pH 9.0
purified protein [8] = substrate: NCCCC=O; format: biochemical, Lathyrus oleraceus; conditions: 1 mM NAD+, 0.15 M Tris-HCl, pH 9.0
purified protein [9] = substrate: N[C@@H](Cc1ccc(O)cc1)C(=O)NCCCC=O; format: biochemical, Lathyrus oleraceus; conditions: 1 mM NAD+, 0.15 M Tris-HCl, pH 9.0
purified protein [10] = substrate: N[C@@H](Cc1ccccc1)C(=O)NCCCC=O; format: biochemical, Lathyrus oleraceus
purified protein [11] = substrate: O=CCCCNC(=O)CCC(=O)O; format: biochemical, Lathyrus oleraceus; conditions: 1 mM NAD+, 0.15 M Tris-HCl, pH 9.0
purified protein [12] = substrate: O=CCCCNC(=O)CCCC(=O)O; format: biochemical, Lathyrus oleraceus; conditions: 1 mM NAD+, 0.15 M Tris-HCl, pH 9.0
purified protein [13] = substrate: O=CCCNC(=O)CCC(=O)O; format: biochemical, Lathyrus oleraceus; conditions: 1 mM NAD+, 0.15 M Tris-HCl, pH 9.0
purified protein [14] = substrate: O=CCCNC(=O)CCCC(=O)O; format: biochemical, Lathyrus oleraceus; conditions: 1 mM NAD+, 0.15 M Tris-HCl, pH 9.0
purified protein [15] = substrate: N[C@@H](CCCC=O)C(=O)O; format: biochemical, Lathyrus oleraceus; conditions: 2.5 mM NAD+, 0.1 M sodium pyrophosphate, pH 8.1
purified protein [16] = substrate: N[C@@H](Cc1ccc(O)cc1)C(=O)NCCC=O; format: biochemical, Lathyrus oleraceus; conditions: 2.5 mM NAD+, 0.1 M sodium pyrophosphate, pH 8.1
purified protein [17] = substrate: N[C@@H](Cc1ccccc1)C(=O)NCCC=O; format: biochemical, Lathyrus oleraceus; conditions: 2.5 mM NAD+, 0.1 M sodium pyrophosphate, pH 8.1
purified protein [18] = substrate: O=CCCCNC(=O)CC(=O)O; format: biochemical, Lathyrus oleraceus; conditions: 2.5 mM NAD+, 0.1 M sodium pyrophosphate, pH 8.1
purified protein [19] = substrate: O=CCCNC(=O)CC(=O)O; format: biochemical, Lathyrus oleraceus; conditions: 2.5 mM NAD+, 0.1 M sodium pyrophosphate, pH 8.1
[20] = 1 mM NAD+, 0.15 M Tris-HCl, pH 9.0
[21] = 2.5 mM NAD+, 0.1 M sodium pyrophosphate, pH 8.1

B1: ZmALDH7 (Zea mays) (protein)
chain: MGAFAKEEHQFLAELGLAQRNPGAFACGAWGGSGPTVTSTSPTNNQVIAEVVEASVHDYEEGMRACFDAAKTWMAIPAPKRGEIVRQIGDALRAKLHHLGRLVSLEMGKILPEGIGEVQEIIDMCDYAVGLSRQLNGSIIPSERPNHMMMEVWNPLGVVGVITAFNFPCAVLGWNACIALVCGNCVVWKGAPTTPLITIAMTKIVASVLEKNNLPGAIFTSFCGGTEIGQAIALDIRIPLVSFTGSTRAGLMVQQQVSARFGKCLLELSGNNAIIVMDDADIQLAVRSVLFAAVGTAGQRCTTCRRLILHENIYQTFLDQLVEVYKQVRIGDPLEKGTLLGPLHTPASKENFLKGIQTIKSQGGKILFGGSAIESEGNFVQPTIVEITPSAPVVKEELFGPVLYVMKFQSLKEAIEINNSVPQGLSSSIFTKRPDIIFKWLGPHGSDCGIVNVNIPTNGAEIGGAFGGEKATGGGREAGSDSWKQYMRRATCTINYGSELPLAQGINFG
notes: recombinant
**Q.** With B1 as the protein, how does the Km (purified protein [1]) read?
**A.** 191 ± 14 µM

**Q.** What about the kcat (purified protein [1]) of the same protein?
**A.** 0.77 ± 0.04 s⁻¹

**Q.** And the kcat/Km (purified protein [1])?
**A.** 4000 M⁻¹ s⁻¹

**Q.** And the Km (purified protein [2])?
**A.** 216 ± 56 µM

**Q.** What about the kcat (purified protein [2]) of the same protein?
**A.** 0.06 ± 0.01 s⁻¹

**Q.** What about the kcat/Km (purified protein [2]) of the same protein?
**A.** 280 M⁻¹ s⁻¹

**Q.** And the Km (purified protein [3])?
**A.** 66 ± 12 µM

**Q.** And the kcat (purified protein [3])?
**A.** 0.06 ± 0.01 s⁻¹

**Q.** And the kcat/Km (purified protein [3])?
**A.** 910 M⁻¹ s⁻¹

**Q.** What about the Km (purified protein [4]) of the same protein?
**A.** 457 ± 55 µM

**Q.** What about the kcat (purified protein [4]) of the same protein?
**A.** 0.02 s⁻¹

**Q.** What about the kcat/Km (purified protein [4]) of the same protein?
**A.** 44 M⁻¹ s⁻¹

**Q.** What about the Km (purified protein [5]) of the same protein?
**A.** 1493 ± 225 µM

**Q.** What about the kcat (purified protein [5]) of the same protein?
**A.** 0.18 ± 0.01 s⁻¹

**Q.** And the kcat/Km (purified protein [5])?
**A.** 120 M⁻¹ s⁻¹

**Q.** And the Km (purified protein [6])?
**A.** 1997 ± 142 µM

**Q.** And the kcat (purified protein [6])?
**A.** 0.15 ± 0.01 s⁻¹

**Q.** What about the kcat/Km (purified protein [6]) of the same protein?
**A.** 75 M⁻¹ s⁻¹

B2: PsAMADH (native pea aminoaldehyde dehydrogenase, prevailing isoenzyme 1) (Lathyrus oleraceus) (protein)
chain: MAITVSSRQLFIDGEWRVPILNKRIPNINPSTENIIGDIPAATKEDVDLAVDAAKRAISRKNGRDWSAASGSLRARYLRAIAAKIKEKKDELGKLESIDCGKPLEEALADLDDVVACFEYYAGLAEELDSKQKAPISLPMDTFKSYILKEPIGVVALITPWNYPFLMATWKIAPALAAGCAAILKPSELASVTCLELGEICKEVGLPRGVLNIVTGLGHEAGASLASHPDVDKISFTGSSATGSKIMTTAAQLVKPVSLELGGKSPIVVFEDVDLDKVAEWTVFGCFFTNGQICSATSRLIVHESIAVEFVDKLVKWAENIKISDPLEEGCRLGPIVSEAQYKKVLNCISSAKSEGATILTGGRRPEHLKKGYFVEPTIITDVTTSMQIWREEVFGPVLAVKTFSTEEEAINLANDTHYGLGSAVMSNDLERCERLSKALQAGIVWINCAQPSFIQAPWGGIKRSGFGRELGEWGLENYLSVKQVTRYTSDEPWGWYQPPSKL
notes: native, purified from 7-day-old etiolated pea seedlings
**Q.** With B2 as the protein, how does the Km (purified protein [7]) read?
**A.** 136 ± 11 µM

**Q.** And the kcat (purified protein [7])?
**A.** 3.36 ± 0.2 s⁻¹

**Q.** And the kcat/Km (purified protein [7])?
**A.** 24700 M⁻¹ s⁻¹

**Q.** And the Km (purified protein [8])?
**A.** 103 ± 17 µM

**Q.** What about the kcat (purified protein [8]) of the same protein?
**A.** 1.34 ± 0.07 s⁻¹

**Q.** And the kcat/Km (purified protein [8])?
**A.** 13000 M⁻¹ s⁻¹

**Q.** And the Km (purified protein [9])?
**A.** 174 ± 42 µM

**Q.** What about the kcat (purified protein [9]) of the same protein?
**A.** 0.22 ± 0.04 s⁻¹

**Q.** And the kcat/Km (purified protein [9])?
**A.** 1300 M⁻¹ s⁻¹

**Q.** And the Km (purified protein [10]; [20])?
**A.** 101 ± 10 µM

**Q.** What about the kcat (purified protein [10]; [20]) of the same protein?
**A.** 0.17 s⁻¹

**Q.** And the kcat/Km (purified protein [10]; [20])?
**A.** 1700 M⁻¹ s⁻¹

**Q.** And the Km (purified protein [11])?
**A.** 138 ± 6 µM

**Q.** What about the kcat (purified protein [11]) of the same protein?
**A.** 1.61 ± 0.07 s⁻¹

**Q.** And the kcat/Km (purified protein [11])?
**A.** 11700 M⁻¹ s⁻¹

**Q.** And the Km (purified protein [12])?
**A.** 427 ± 33 µM

**Q.** And the kcat (purified protein [12])?
**A.** 1.49 ± 0.11 s⁻¹

**Q.** And the kcat/Km (purified protein [12])?
**A.** 3500 M⁻¹ s⁻¹

**Q.** And the Km (purified protein [13])?
**A.** 513 ± 36 µM

**Q.** What about the kcat (purified protein [13]) of the same protein?
**A.** 4.13 ± 0.2 s⁻¹

**Q.** And the kcat/Km (purified protein [13])?
**A.** 8100 M⁻¹ s⁻¹

**Q.** And the Km (purified protein [14])?
**A.** 506 ± 92 µM

**Q.** What about the kcat (purified protein [14]) of the same protein?
**A.** 1.29 ± 0.14 s⁻¹

**Q.** What about the kcat/Km (purified protein [14]) of the same protein?
**A.** 2500 M⁻¹ s⁻¹

B3: PsALDH7 (Lathyrus oleraceus) (protein)
chain: GSDSNNLGFLKEIGLGATNIGSFINGQWKANGPTVHSVNPSTNQVIASVTEATLDDYEEGLRASSEAAKTWRTVPAPKRGEIVRQIGDALRAKLDPLGRLVALEMGKILAEGIGEVQEIIDMCDYSVGLSRQLNGSIIPSERPEHMMFEVWNPLGIVGVITAFNFPCAVLGWNACIALVGGNTVVWKGAPTTPLITVAVTKLIAEVFERNNLPGAIFTALCGGADIGHAIAKDTRIPLVSFTGSSKVGALVQQTVSQRFGKTLLELSGNNAIIVMDDADITLAVRSIFFAAVGTAGQRCTTCRRLYLHESVYANVLEQLTALYKQVKIGNPLEEGTLVGPLHTRSAVENFKNGISAIKSQGGKIVTGGSVLESEGNFVVPTIVEISADAAVVKEELFAPVLYVMKFKDLEEAIALNNSVPQGLSSSIFTQKPSTIFKWIGPSGSDCGIVNVNIPTNGAEIGGAFGGEKATGGGREAGSDSWKQYMRRSTCTINYGSELPLAQGINFG
notes: recombinant
**Q.** How did the Km (purified protein [15]) turn out when B3 was run?
**A.** 172 ± 32 µM

**Q.** And the kcat (purified protein [15])?
**A.** 0.77 ± 0.09 s⁻¹

**Q.** What about the kcat/Km (purified protein [15]) of the same protein?
**A.** 4500 M⁻¹ s⁻¹

**Q.** What about the Km (purified protein [16]) of the same protein?
**A.** 252 ± 45 µM

**Q.** What about the kcat (purified protein [16]) of the same protein?
**A.** 0.09 ± 0.01 s⁻¹

**Q.** What about the kcat/Km (purified protein [16]) of the same protein?
**A.** 360 M⁻¹ s⁻¹

**Q.** What about the Km (purified protein [17]) of the same protein?
**A.** 74 ± 7 µM

**Q.** And the kcat (purified protein [17])?
**A.** 0.07 s⁻¹

**Q.** What about the kcat/Km (purified protein [17]) of the same protein?
**A.** 950 M⁻¹ s⁻¹

**Q.** And the Km (purified protein [10]; [21])?
**A.** 656 ± 55 µM

**Q.** What about the kcat (purified protein [10]; [21]) of the same protein?
**A.** 0.04 s⁻¹

**Q.** And the kcat/Km (purified protein [10]; [21])?
**A.** 61 M⁻¹ s⁻¹

**Q.** And the Km (purified protein [18])?
**A.** 703 ± 72 µM

**Q.** And the kcat (purified protein [18])?
**A.** 0.13 ± 0.01 s⁻¹

**Q.** What about the kcat/Km (purified protein [18]) of the same protein?
**A.** 180 M⁻¹ s⁻¹

**Q.** What about the Km (purified protein [19]) of the same protein?
**A.** 2522 ± 203 µM

**Q.** And the kcat (purified protein [19])?
**A.** 0.19 ± 0.01 s⁻¹

**Q.** What about the kcat/Km (purified protein [19]) of the same protein?
**A.** 75 M⁻¹ s⁻¹
